This is an account of results in US20230235039A1 (REGENECORE BIOTECH, published 2023).

Substitutions are numbered along the chain they refer to.

Test [1] deals with T1, human recombinant IL-5 protein with a histidine tag at carboxyl terminal (human, UniProt P05113 20-134).
T1 construct: range 20-134; Expressed in 293F cells; also called hrIL-5-cHis; human IL-5 protein; not shown: histidine tag at carboxyl terminal
As to the kind of experiment: ELISA, IL-5 protein coated on the plate, VHH titrated, anti-HA tag HRP secondary antibody, OD450. On the procedure:
50 μL of 1 μg/mL IL-5 protein was coated on an ELISA plate at 4° C. overnight. The plate was washed. 200 μL of 5% milk was added for blocking at 37° C. for 1 h. The IL-5 protein-specific single-domain antibody (VHH) obtained in Example 1 was diluted to 2 μg/mL, and then diluted by a 5-fold gradient, in a total of 8 concentration gradients. The plate was washed. 50 μL of antibody was added in duplicate wells, and then incubated at 37° C. for 1 h. The plate was washed. 50 μL of mouse anti-HA tag HRP secondary antibody was added, and then incubated at 37° C. for 30 min. The plate was washed (for multiple times). 50 μL of TMB that had been restored to room temperature was added to react at room temperature in the dark for 15 min. 50 µL of stopping solution (1N HCl) was added. The resultant was measured using a microplate reader and then recorded. The curve was plotted.
In general terms: An ELISA detects its analyte on a solid surface through an enzyme-linked reagent.

The target in test [2] is T1, human recombinant IL-5 protein with a …. As to the kind of experiment: BLI (Octet 96), binding molecule on sensor, IL-5 antigen 200 nM and 2-fold dilutions. On the procedure: Formulation of SD buffer: A proper amount of bovine serum albumin and Tween 20 were dissolved in 1×PBS (pH 7.4), so that the mass (or volume) fractions of bovine serum albumin and Tween 20 were 0.1% and 0.02% respectively. The IL-5 binding molecule was formulated in the SD buffer to a concentration of 10 μg/mL. Formulation of antigen working solution: the antigen was formulated in the SD buffer to 200 nM, and then diluted by a 2-fold gradient in a total of 5 concentration gradients. In addition, a blank control of SD buffer was also provided. A proper amount of 0.1M glycine stock solution was diluted by 10-fold in deionized water and mixed uniformly, to obtain a regeneration solution. Octet 96 and the Data Acquisition software in its supporting computer were run. The bottom and side of the acquisition probe were cleaned using a lens tissue with a proper amount of 75% ethanol. The instrument was pre-warmed for 15 min or more. Sensor pre-wetting: sensor was soaked in the SD buffer for 10 min or more before the assay. Then, the machine procedure was set according to baseline→antibody→baseline→binding antigen→dissociating antigen→regenerating sensor for assay operation.

B1: single-domain antibody 1B3 (VHH, expressed in E. coli) (VHH)
VHH: QVQLVESGGGSVQAGGSLRLSCAASGITASTSCMGWFRQSPGKEREGSLATIYDGSTSYADSVKGRFTISVDNAKNILYLQMNNLKPEDTAMYYCAAAKYCMFWSHPSYWGQGTQVTVSS
notes: pMECS-VHH expressed in E. coli HB2151, purified on Ni-column; not shown: C-terminal tags from vector pMECS (HA tag, and the His tag implied by Ni-column purification)
Usually EC50 (read off the curve) stands for the concentration needed to bring the measured effect to its halfway point. Turning to B1, the “EC50 (read off the curve)” value in test [1] is approximately 6 nM.

B2: humanized Fc-fused single-domain antibody 1B3-V2 (Fc fusion, not shown: a dimerising Fc or GST)
chain (part 1 of 2): B1 VHH with G55A, V71R, A74S, K86R, P87A, M92V, K99R
chain (part 2 of 2): HHHHHH
notes: Humanized variant of 1B3; vector RJK-V4-hFC
In general, Kd refers to the free concentration of one partner at which half of the binding sites on the other are occupied at equilibrium, for simple one-to-one binding. As usually defined, the koff is the rate constant with which the complex falls apart. Broadly, the kon is a measure of how fast the partners come together. As to B2, in test [2], the dissociation constant (Kd) turned out to be 1.02 nM, the koff is 0.000184 s⁻¹ and the kon is 180000 M⁻¹ s⁻¹.

B3: single-domain antibody 1B8 (VHH, expressed in E. coli) (VHH)
VHH: B1 VHH with R66Q
notes: as for B1
For B3, the “EC50 (read off the curve)” value in test [1] is approximately 4 nM.

B4: Fc fusion protein of anti-IL-5 single-domain antibody 1B3 (Fc fusion, not shown: a dimerising Fc or GST)
chain (part 1 of 2): B1 VHH
chain (part 2 of 2): HHHHHH
notes: Vector RJK-V4-hFC; Embodiments name a human IgG4 Fc; also called clone 1B3
Turning to B4, in test [2], the Kd was found to be 0.88 nM, the koff is 0.000132 s⁻¹ and the kon worked out at 149000 M⁻¹ s⁻¹.

B5: humanized Fc-fused single-domain antibody 2B3-V2 (Fc fusion, not shown: a dimerising Fc or GST)
chain (part 1 of 2): QVQLVESGGGSVQAGGSLRLSCAASGNTFSFSTYCMGWFRQSPGKEREGSLATIYDASTAYAGSVKGRFTISRDNSKNILYLQMNNLRAEDTAVYYCAAARYCMFWSHPSYWGQGTQVTVSS
chain (part 2 of 2): HHHHHH
notes: Humanized variant of 2B3; vector RJK-V4-hFC
Regarding B5, in test [2], the Kd came to 2.06 nM, the koff is 0.000406 s⁻¹ and the association rate constant (kon) was determined as 197000 M⁻¹ s⁻¹.

B6: Fc fusion protein of anti-IL-5 single-domain antibody 2B3 (Fc fusion, not shown: a dimerising Fc or GST)
chain (part 1 of 2): B5 chain (part 1 of 2) with A57G, R73V, S76A, R88K, A89P, V94M, R101K, H108D
chain (part 2 of 2): HHHHHH
notes: Vector RJK-V4-hFC; also called clone 2B3
Consider B6, for which, in test [2], the Kd is 1.6 nM, the koff amounted to 0.000295 s⁻¹ and the kon is 184000 M⁻¹ s⁻¹.
